According to patent publication US20230263832A1, “TARGETED DRUG DELIVERY TO SITES OF INTRAVASCULAR OCCLUSION” (Children's Medical Center Corporation, priority 2020, published 2023):

Test system: RBC aggregates in SCD mouse liver
Test: TNFα-induced vaso-occlusion in SCD mouse liver (LaSC, 3 parameters)
Assay type: in vivo
Conditions: SS mice, TNFα 1 μg/mouse i.p. 1 h
Procedure: FIG. 12: Parameters of RBC aggregates were determined to quantitate vaso-occlusion in SCD mouse liver. SCD mice were injected with TNFα (1 μg/mouse; 1 h) to induce inflammatory vaso-occlusion, followed by CO2 euthanasia and PBS perfusion to flush unbound RBCs in the vasculature. The livers were harvested and fixed by PLP fixative, followed by cryosectioning and immunofluorescent staining with antibodies against Ter119 (for RBC marker), Endoglin (for sinusoidal vasculature), S100A8 (for neutrophils), and DAPI (for nuclei). Stained slides with fluorescent dye-labeled secondary antibodies were scanned on laser scan cytometry (LaSC), followed by quantitative imaging analysis (iCys software) to quantitate the # of RBC aggregates that are larger than 100 μm^2, total area of RBC aggregates, the # neutrophil-containing RBC aggregates by iCys software. Arrows indicate the neutrophil-containing RBC aggregate in liver sinusoid.
SCD SS and control AA mice were injected with or without TNFα (1 μg/mouse; 1 h) to induce inflammatory vaso-occlusion, followed by CO2 euthanasia and PBS perfusion to flush unbound RBCs in the vasculature. Immunofluorescent staining of liver cryosections was performed as described in FIG. 12 to produce LaSC images, which were subjected to quantitative imaging analysis of RBC aggregates for 3 parameters in SCD mouse livers (see FIG. 14).
From FIG. 13 LaSC scanning, cytometric events are defined by automatic image segmentation on specific channels by iCys software to quantitate # of RBC aggregate, total area of RBC aggregates, # of neutrophil-containing RBC aggregates by iCys software (Park et al. 2020). […]
(FIG. 15A) Representative images show the increased RBC aggregates upon TNFα injection in SCD mouse liver. (FIG. 15B) This was followed by quantitative imaging analysis (iCys software) to quantitate # of RBC aggregate, total area of RBC aggregates, # of neutrophil-containing RBC aggregates by iCys software. […]

TNFα
increase of # of RBC aggregates: 51%
increase of # of neutrophil-containing RBC aggregates: 182%
increase of total area of RBC aggregates: 59%
